Measured values: patent publication US20250236673A1 (Ablynx, published 2025)
Residue numbers refer to the chain shown, from its start. In names and notes the source's numbering stands.

T1: recombinant human CEACAM5 (human, UniProt P06731 35-685, limits assumed)
T1 construct: Immobilised by amine coupling on a CM5 chip
T1 sequence (looked up): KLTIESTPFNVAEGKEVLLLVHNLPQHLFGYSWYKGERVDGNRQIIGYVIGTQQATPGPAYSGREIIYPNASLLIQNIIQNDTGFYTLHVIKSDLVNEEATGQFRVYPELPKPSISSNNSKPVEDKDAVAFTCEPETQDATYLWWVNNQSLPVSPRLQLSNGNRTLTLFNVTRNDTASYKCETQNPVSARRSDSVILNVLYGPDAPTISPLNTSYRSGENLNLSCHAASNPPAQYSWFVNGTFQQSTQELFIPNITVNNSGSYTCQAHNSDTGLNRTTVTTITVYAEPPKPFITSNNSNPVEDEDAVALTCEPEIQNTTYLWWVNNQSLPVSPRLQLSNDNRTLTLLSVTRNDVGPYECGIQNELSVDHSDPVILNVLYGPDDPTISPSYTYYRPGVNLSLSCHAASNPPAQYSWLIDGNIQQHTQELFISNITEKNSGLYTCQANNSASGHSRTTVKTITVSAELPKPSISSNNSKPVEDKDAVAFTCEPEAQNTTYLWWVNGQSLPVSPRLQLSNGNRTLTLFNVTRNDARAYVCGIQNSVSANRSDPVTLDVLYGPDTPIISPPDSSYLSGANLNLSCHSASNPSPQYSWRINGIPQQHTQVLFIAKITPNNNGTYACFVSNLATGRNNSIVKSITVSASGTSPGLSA

B1: T028501790 (VHH)
VHH: EVQLVESGGGVVQPGGSLRLSCAASGLTFSTYTMGWFRQAPGEEREFVAAIIWSGSNTYYADSVKGRFTISRDNAKNTVYLQMNSLRPEDTALYYCAAQHFGPIGLTTRGYHYWGQGTLVTVSS
notes: K43E vs precursor T028501789; also called A0315007E07(K43E)
B2: T028501796 (VHH)
VHH: B1 VHH with E43K, K65Q
notes: K64Q vs precursor T028501789; also called A0315007E07(K64Q)
B3: T028501794 (VHH)
VHH: B1 VHH with E43A
notes: K43A (Kabat) vs precursor T028501789; also called A0315007E07(K43A)
B4: T028501801 (VHH)
VHH: B1 VHH with E43K, K76Q
notes: K75Q vs precursor T028501789; also called A0315007E07(K75Q)
B5: T028501800 (VHH)
VHH: B1 VHH with E43K, K76E
notes: K75E vs precursor T028501789; also called A0315007E07(K75E)
B6: T028501797 (VHH)
VHH: B1 VHH with E43K, K65R
notes: K64R vs precursor T028501789; also called A0315007E07(K64R)
B7: T028501793 (VHH)
VHH: B1 VHH with E43H
notes: K43H vs precursor T028501789; also called A0315007E07(K43H)
B8: T028501804 (VHH)
VHH: B1 VHH with E43K, K76A
notes: K75A vs precursor T028501789; also called A0315007E07(K75A)
B9: T028501802 (VHH)
VHH: B1 VHH with E43K, K76R
notes: K75R vs precursor T028501789; also called A0315007E07(K75R)
B10: T028501791 (VHH)
VHH: B1 VHH with E43Q
notes: K43Q vs precursor T028501789; also called A0315007E07(K43Q)
B11: T028501795 (VHH)
VHH: B1 VHH with E43K, K65E
notes: K64E vs precursor T028501789; also called A0315007E07(K64E)
B12: T028501799 (VHH)
VHH: B1 VHH with E43K, K65A
notes: K64A vs precursor T028501789; also called A0315007E07(K64A)
B13: T028501803 (VHH)
VHH: B1 VHH with E43K, K76H
notes: K75H vs precursor T028501789; also called A0315007E07(K75H)
B14: T028501792 (VHH)
VHH: B1 VHH with E43R
notes: K43R vs precursor T028501789; also called A0315007E07(K43R)
B15: T028501798 (VHH)
VHH: B1 VHH with E43K, K65H
notes: K64H vs precursor T028501789; also called A0315007E07(K64H)
B16: T028501817 (VHH)
VHH: EVQLVESGGGVVQPGGSLRLSCAASGHTFSEYALGWFRQAPGKEREFVAAINWGGGWTYYADSVKGRFTISRDNAKNTLYLQMNSLRPEDTALYYCAASSDYAGGNPTGYPYWGQGTLVTVSS
notes: also called A031500099; A0315024B02(L11V, A14P, D16G S23A, M43K, Q64K, K83R, G85E, G89L)
B17: T028501828 (VHH)
VHH: B16 VHH with K76E
notes: K75E vs precursor T028501817; 38 used; also called A0315024B02(M43K, Q64K, K75E, K83R)
B18: T028501827 (VHH)
VHH: B16 VHH with K65A
notes: K64A vs precursor T028501817; also called A0315024B02(M43K, Q64A, K83R)
B19: T028501822 (VHH)
VHH: B16 VHH with K43A
notes: K43A vs precursor T028501817; also called A0315024B02(M43A, Q64K, K83R)
B20: T028501819 (VHH)
VHH: B16 VHH with K43Q
notes: K43Q vs precursor T028501817; also called A0315024B02(M43Q, Q64K, K83R)
B21: T028501818 (VHH)
VHH: B16 VHH with K43E
notes: K43E vs precursor T028501817; also called A0315024B02(M43E, Q64K, K83R)
B22: T028501825 (VHH)
VHH: B16 VHH with K65R
notes: K64R vs precursor T028501817; also called A0315024B02(M43K, Q64R, K83R)
B23: T028501820 (VHH)
VHH: B16 VHH with K43R
notes: K43R vs precursor T028501817; also called A0315024B02(M43R, Q64K, K83R)
B24: T028501829 (VHH)
VHH: B16 VHH with K76Q
notes: K75Q vs precursor T028501817; also called A0315024B02(M43K, Q64K, K75Q, K83R)
B25: T028501823 (VHH)
VHH: B16 VHH with K65E
notes: K64E vs precursor T028501817; also called A0315024B02(M43K, Q64E, K83R)
B26: T028501821 (VHH)
VHH: B16 VHH with K43H
notes: K43H vs precursor T028501817; also called A0315024B02(M43H, Q64K, K83R)
B27: T028501831 (VHH)
VHH: B16 VHH with K76H
notes: K75H vs precursor T028501817; also called A0315024B02(M43K, Q64K, K75H, K83R)
B28: T028501824 (VHH)
VHH: B16 VHH with K65Q
notes: also called A0315024B02(M43K, (K64K83R))
B29: T028501830 (VHH)
VHH: B16 VHH with K76R
notes: K75R vs precursor T028501817; also called A0315024B02(M43K, Q64K, K75R, K83R)
B30: T028501826 (VHH)
VHH: B16 VHH with K65H
notes: K64H vs precursor T028501817; also called A0315024B02(M43K, Q64H, K83R)
B31: T028501832 (VHH)
VHH: B16 VHH with K76A
notes: K75A vs precursor T028501817; also called A0315024B02(M43K, Q64K,K75A, K83R)
B32: T028501806 (VHH)
VHH: EVQLVESGGGVVQPGGSLRLSCAASGFTFRSFGMSWVRQAPGEGPEWVSSISGSGSDTLYADSVKGRFTISRDNSKNTLYLQMNSLRPEDTALYYCTIGGSLSRSSQGTLVTVSS
notes: K43E vs precursor T028501805; also called HSA006A06(K43E, K83R)
B33: T028501814 (VHH)
VHH: B32 VHH with E43K, K76Q
notes: K75Q vs precursor T028501805; also called HSA006A06(K75Q, K83R)
B34: T028501810 (VHH)
VHH: B32 VHH with E43K, K65E
notes: K64E vs precursor T028501805; also called HSA006A06(K64E,K83R)
B35: T028501811 (VHH)
VHH: B32 VHH with E43K, K65Q
notes: K64Q vs precursor T028501805; also called HSA006A06(K64Q, K83R)
B36: T028501812 (VHH)
VHH: B32 VHH with E43K, K65H
notes: K64H vs precursor T028501805; also called HSA006A06(K64H, K83R)
B37: T028501813 (VHH)
VHH: B32 VHH with E43K, K76E
notes: K75E vs precursor T028501805; also called HSA006A06(K75E, K83R)
B38: T028501809 (VHH)
VHH: B32 VHH with E43A
notes: K43A vs precursor T028501805; also called HSA006A06(K43A, K83R)
B39: T028501815 (VHH)
VHH: B32 VHH with E43K, K76R
notes: K75R vs precursor T028501805; also called HSA006A06(K75R, K83R)
B40: T028501808 (VHH)
VHH: B32 VHH with E43H
notes: K43H vs precursor T028501805; also called HSA006A06(K43H, K83R)
B41: T028501807 (VHH)
VHH: B32 VHH with E43Q
notes: K43Q vs precursor T028501805; also called HSA006A06(K43Q, K83R)

Target: T1, recombinant human CEACAM5
Experiment: SPR Biacore 8K+, CEACAM5 amine-coupled on CM5, ISVD analyte, 1:1 fit

Row | Binder | Kd | koff | kon
1 | B1 | 1.71 nM | 0.00085 s⁻¹ | 498000 M⁻¹ s⁻¹
2 | B2 | 2.24 nM | 0.000929 s⁻¹ | 415000 M⁻¹ s⁻¹
3 | B3 | 1.54 nM | 0.000865 s⁻¹ | 562000 M⁻¹ s⁻¹
4 | B4 | 1.58 nM | 0.000913 s⁻¹ | 579000 M⁻¹ s⁻¹
5 | B5 | 1.72 nM | 0.000911 s⁻¹ | 529000 M⁻¹ s⁻¹
6 | B6 | 1.59 nM | 0.00107 s⁻¹ | 675000 M⁻¹ s⁻¹
7 | B7 | 1.22 nM | 0.000877 s⁻¹ | 719000 M⁻¹ s⁻¹
8 | B8 | 1.56 nM | 0.000917 s⁻¹ | 586000 M⁻¹ s⁻¹
9 | B9 | 1.39 nM | 0.000897 s⁻¹ | 643000 M⁻¹ s⁻¹
10 | B10 | 1.45 nM | 0.00087 s⁻¹ | 602000 M⁻¹ s⁻¹
11 | B11 | 3.55 nM | 0.000914 s⁻¹ | 258000 M⁻¹ s⁻¹
12 | B12 | 2.54 nM | 0.000976 s⁻¹ | 385000 M⁻¹ s⁻¹
13 | B13 | 1.46 nM | 0.00084 s⁻¹ | 574000 M⁻¹ s⁻¹
14 | B14 | 1.23 nM | 0.00092 s⁻¹ | 747000 M⁻¹ s⁻¹
15 | B15 | 2.39 nM | 0.000962 s⁻¹ | 402000 M⁻¹ s⁻¹
16 | B16 | 8.9 nM | 0.00212 s⁻¹ | 238000 M⁻¹ s⁻¹

Row | Binder | Kd | koff | kon
17 | B17 | 7.51 nM | 0.00203 s⁻¹ | 270000 M⁻¹ s⁻¹
18 | B18 | 7.95 nM | 0.00235 s⁻¹ | 295000 M⁻¹ s⁻¹
19 | B19 | 8.77 nM | 0.00198 s⁻¹ | 225000 M⁻¹ s⁻¹
20 | B20 | 8.74 nM | 0.00199 s⁻¹ | 228000 M⁻¹ s⁻¹
21 | B21 | 10.5 nM | 0.00226 s⁻¹ | 215000 M⁻¹ s⁻¹
22 | B22 | 7.27 nM | 0.00241 s⁻¹ | 331000 M⁻¹ s⁻¹
23 | B23 | 7.13 nM | 0.00172 s⁻¹ | 242000 M⁻¹ s⁻¹
24 | B24 | 7.14 nM | 0.00208 s⁻¹ | 291000 M⁻¹ s⁻¹
25 | B25 | 18.2 nM | 0.00282 s⁻¹ | 155000 M⁻¹ s⁻¹
26 | B26 | 9.11 nM | 0.00193 s⁻¹ | 212000 M⁻¹ s⁻¹
27 | B27 | 7.8 nM | 0.00209 s⁻¹ | 268000 M⁻¹ s⁻¹
28 | B28 | 12.2 nM | 0.00249 s⁻¹ | 205000 M⁻¹ s⁻¹
29 | B29 | 6.01 nM | 0.00207 s⁻¹ | 344000 M⁻¹ s⁻¹
30 | B30 | 8.42 nM | 0.00232 s⁻¹ | 275000 M⁻¹ s⁻¹
31 | B31 | 6.34 nM | 0.00204 s⁻¹ | 322000 M⁻¹ s⁻¹

Target: T2, human serum albumin (human, UniProt P02768 25-609)
T2 construct: Immobilised by amine coupling on a C1 chip; also called HSA
Experiment: SPR Biacore 8K+, HSA amine-coupled on C1 chip, ISVD analyte, 1:1 fit

T2 sequence (P02768 25-609 limits assumed): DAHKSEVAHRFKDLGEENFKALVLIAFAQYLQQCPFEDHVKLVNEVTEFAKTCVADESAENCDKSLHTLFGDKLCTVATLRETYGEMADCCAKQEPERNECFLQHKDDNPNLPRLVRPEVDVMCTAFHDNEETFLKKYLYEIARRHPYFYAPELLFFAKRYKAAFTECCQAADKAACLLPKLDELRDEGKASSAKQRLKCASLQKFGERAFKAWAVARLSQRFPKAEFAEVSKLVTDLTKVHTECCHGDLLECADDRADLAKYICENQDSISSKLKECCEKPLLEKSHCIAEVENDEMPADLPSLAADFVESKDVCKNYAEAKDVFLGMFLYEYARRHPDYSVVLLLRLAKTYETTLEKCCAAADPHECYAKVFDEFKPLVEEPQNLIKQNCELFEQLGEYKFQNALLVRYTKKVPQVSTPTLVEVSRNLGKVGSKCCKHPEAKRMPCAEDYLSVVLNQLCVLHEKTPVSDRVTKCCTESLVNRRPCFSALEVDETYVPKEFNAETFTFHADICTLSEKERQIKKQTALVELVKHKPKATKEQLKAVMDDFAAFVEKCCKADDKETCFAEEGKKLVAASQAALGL

Row | Binder | Kd | koff | kon
32 | B32 | 1.26 nM | 0.00108 s⁻¹ | 856000 M⁻¹ s⁻¹
33 | B33 | 1.4 nM | 0.00114 s⁻¹ | 814000 M⁻¹ s⁻¹
34 | B34 | 1.93 nM | 0.00124 s⁻¹ | 644000 M⁻¹ s⁻¹
35 | B35 | 1.76 nM | 0.00103 s⁻¹ | 587000 M⁻¹ s⁻¹
36 | B36 | 1.74 nM | 0.00102 s⁻¹ | 590000 M⁻¹ s⁻¹
37 | B37 | 1.98 nM | 0.00102 s⁻¹ | 514000 M⁻¹ s⁻¹
38 | B38 | 1.13 nM | 0.000872 s⁻¹ | 769000 M⁻¹ s⁻¹
39 | B39 | 1.48 nM | 0.00127 s⁻¹ | 860000 M⁻¹ s⁻¹
40 | B40 | 1.4 nM | 0.00102 s⁻¹ | 728000 M⁻¹ s⁻¹
41 | B41 | 1.76 nM | 0.00119 s⁻¹ | 677000 M⁻¹ s⁻¹
